# Assay results reported in patent US20250296959A1, “B7-H3 TARGETING PEPTIDES AND CONSTRUCTS THEREOF” (Mariana Oncology Inc., priority 2024, published 2025).
# Starred links: 1 amine or outer side, 2 acyl side, 3 side chain; linkers in the order of their positions; H or OH if unused. Positions of bridges follow the written chain, without caps; N, C: chain ends. Non-standard residues stand in square brackets, D forms with d. Groups on a side chain read outwards from the residue. Primed or numbered codes have the meaning given here. *: point of attachment. R‑DOTAGA = O=C(O)CN1CCN(CC(=O)O)CCN([C@H](CCC(=O)*)C(=O)O)CCN(CC(=O)O)CC1; DOTA = O=C(O)CN1CCN(CC(=O)O)CCN(CC(=O)*)CCN(CC(=O)O)CC1; PipAla = piperidinyl-alanine residue (as named); Trp(5-F) = N[C@@H](Cc1c[nH]c2ccc(F)cc12)C(=O)O; hydroxyVal = hydroxy-valine residue (as named); PEG4′ = 4x 3-(2-aminoethoxy)propanoic acid; γGlu = O=C(O)[C@H](CCC(=O)[*:2])N[*:1]; 1Nal = N[C@@H](Cc1cccc2ccccc12)C(=O)O; Ala(4-THP) = N[C@@H](CC1CCOCC1)C(=O)O; Val(3-OH) = CC(C)(O)[C@H](N)C(=O)O; Tle = CC(C)(C)[C@H](N)C(=O)O; hLeu = CC(C)CC[C@H](N)C(=O)O; Ms = CS(=O)(=O)*
# Molecular target: B7-H3 on Calu-6 cells (human) (UniProt Q5ZPR3)
# Assay: 177Lu-labelled peptide on Calu-6 cells, % cell associated fraction; B = 25<%<=50
row,% cell associated fraction [%],Binder
1,25 to 50,Ac-[hLeu]YC[Tle]GK(DOTA)[Ala(4-THP)]DVYC[Trp(5-F)]F[Val(3-OH)]-NH2 (disulfide 3-11 (inferred)) [Cpd 338]
2,25 to 50,"Ac-[hLeu]YC[Tle]G[PipAla][Ala(4-THP)]DVYCXF[hydroxyVal][dK]([dE-DOTA])-OH (disulfide 3-11 (inferred); not fully specified (residue 12); printed as Ac-hLeu-Y-C-Tbg-G-PipAla-ThpA-D-V-Y-C-5FW-F-hydroxyVal-dLys(dGlu-DOTA)-COOH, disulfide) [Cpd 429]"
3,25 to 50,Ac-[hLeu]YC[Tle]GK[Pip(PEG4-DOTA)Ala]DVYC[Trp(5-F)]F[Val(3-OH)][dE]-NH2 (disulfide 3-11 (inferred)) [Cpd 410]
4,25 to 50,Ac-[hLeu]YC[Tle]GK[Pip(PEG4-DOTA)Ala]DVYC[Trp(5-F)]F[Val(3-OH)]-NH2 (disulfide 3-11 (inferred)) [Cpd 383]
5,25 to 50,Ac-[hLeu]YC[Tle]G[PipAla][Ala(4-THP)]DVYC[1Nal]F[hydroxyVal][dK](DOTA)-OH (disulfide 3-11 (inferred)) [Cpd 436]
6,25 to 50,Ac-[hLeu]YC[Tle]G[Pip(PEG4-DOTA)Ala][Ala(4-THP)]DVYC[Trp(5-F)]F[Val(3-OH)][dA]-NH2 (disulfide 3-11 (inferred)) [Cpd 384]
7,25 to 50,"Ms-[hLeu]YC[Tle]G[PipAla][Ala(4-THP)]DVYCXF[hydroxyVal][dK](DOTA)-OH (disulfide 3-11 (inferred); not fully specified (residue 12); printed as MeSO2-hLeu-Y-C-Tbg-G-PipAla-ThpA-D-V-Y-C-5FW-F-hydroxyVal-dLys(DOTA)-COOH, disulfide) [Cpd 437]"
8,25 to 50,"Ac-[hLeu]YC[Tle]G[PipAla][Ala(4-THP)]DVYCXF[hydroxyVal][dK]([γGlu-DOTA])-OH (disulfide 3-11 (inferred); not fully specified (residue 12); printed as Ac-hLeu-Y-C-Tbg-G-PipAla-ThpA-D-V-Y-C-5FW-F-hydroxyVal-dLys(gGlu-DOTA)-COOH, disulfide) [Cpd 440]"
9,25 to 50,"Ac-[hLeu]YC[Tle]G[PipAla][Ala(4-THP)]DVYCXF[hydroxyVal][dK](R‑DOTAGA)-OH (disulfide 3-11 (inferred); not fully specified (residue 12); printed as Ac-hLeu-Y-C-Tbg-G-PipAla-ThpA-D-V-Y-C-5FW-F-hydroxyVal-dLys(R-DOTAGA)-COOH, disulfide) [Cpd 438]"
10,25 to 50,"Ac-[hLeu]YC[Tle]G[PipAla][Ala(4-THP)]DVYCXF[hydroxyVal][dK]([Glu-DOTA])-OH (disulfide 3-11 (inferred); not fully specified (residue 12); printed as Ac-hLeu-Y-C-Tbg-G-PipAla-ThpA-D-V-Y-C-5FW-F-hydroxyVal-dLys(Glu-DOTA)-COOH, disulfide) [Cpd 428]"
11,25 to 50,Ac-[hLeu]YC[Tle]G[PipAla][Ala(4-THP)]DVYC[Trp(5-F)]F[hydroxyVal][dK]([PEG4′-DOTA])-OH (disulfide 3-11 (inferred)) [Cpd 465]
